Laboratory results as given in publication PMC2668526 (Bioorganic & medicinal chemistry, 2008).

How the values were obtained:
Assay in all cases: purified protein, by the assay type
Settings in all cases: other: O2 consumption, 5.0 mM ascorbate, pH 6.0, 37 °C
[1] = substrate: CC(=O)NCC(=O)NCC(=O)O
[2] = substrate: CC(C)(C)OC(=O)NCC(=O)NCC(=O)O
[3] = substrate: CC(C)(C)OC(=O)NCC(=O)O
[4] = substrate: CC(C)CCC(=O)NCC(=O)O
[5] = substrate: CCCc1ccc(C(=O)NCC(=O)O)cc1
[6] = substrate: COc1ccc(C(=O)NCC(=O)O)cc1
[7] = substrate: C[C@@H](NC(=O)OCc1ccccc1)C(=O)O
[8] = substrate: C[C@@H](NC(=O)c1ccccc1)C(=O)O
[9] = substrate: Cc1ccc(C(=O)NCC(=O)O)cc1
[10] = substrate: Cc1cccc(C(=O)NCC(=O)O)c1
[11] = substrate: Cc1ccccc1C(=O)NCC(=O)O
[12] = substrate: O=C(O)CNC(=O)/C=C/c1ccco1
[13] = substrate: O=C(O)CNC(=O)CCCCCc1ccccc1
[14] = substrate: O=C(O)CNC(=O)CCCCc1ccccc1
[15] = substrate: O=C(O)CNC(=O)CCCc1ccccc1
[16] = substrate: O=C(O)CNC(=O)CNC(=O)c1ccc([N+](=O)[O-])cc1
[17] = substrate: O=C(O)CNC(=O)CNC(=O)c1ccccc1
[18] = substrate: O=C(O)CNC(=O)CSc1ccccc1
[19] = substrate: O=C(O)CNC(=O)Nc1ccccc1
[20] = substrate: O=C(O)CNC(=O)c1c(F)cccc1F
[21] = substrate: O=C(O)CNC(=O)c1ccc(C(F)(F)F)cc1
[22] = substrate: O=C(O)CNC(=O)c1cccc(Cl)c1
[23] = substrate: O=C(O)CNC(=O)c1ccccc1O
[24] = substrate: O=C(O)CNC(=O)c1ccco1
[25] = substrate: O=C(O)CNC(=S)CCc1ccccc1
[26] = substrate: O=C(O)CNC(=S)Cc1ccccc1

B1: rat PAM (Rattus norvegicus) (protein)
chain: FKETTRSFSNECLGTIGPVTPLDASDFALDIRMPGVTPKESDTYFCMSMRLPVDEEAFVIDFKPRASMDTVHHMLLFGCNMPSSTGSYWFCDEGTCTDKANILYAWARNAPPTRLPKGVGFRVGGETGSKYFVLQVHYGDISAFRDNHKDCSGVSVHLTRVPQPLIAGMYLMMSVDTVIPPGEKVVNADISCQYKMYPMHVFAYRVHTHHLGKVVSGYRVRNGQWTLIGRQNPQLPQAFYPVEHPVDVTFGDILAARCVFTGEGRTEATHIGGTSSDEMCNLYIMYYMEAKYALSFMTCTKNVAPDMFRTIPAEANIPIPVKPDMVMMHGHHKEAENKEKSALMQQPKQGEEEVLEQDFHVEEELDWPGVYLLPGQVSGVALDSKNNLVIFHRGDHVWDGNSFDSKFVYQQRGLGPIEEDTILVIDPNNAEILQSSGKNLFYLPHGLSIDTDGNYWVTDVALHQVFKLDPHSKEGPLLILGRSMQPGSDQNHFCQPTDVAVEPSTGAVFVSDGYCNSRIVQFSPSGKFVTQWGEESSGSSPRPGQFSVPHSLALVPHLDQLCVADRENGRIQCFKTDTKEFVREIKHASFGRNVFAISYIPGFLFAVNGKPYFGDQEPVQGFVMNFSSGEIIDVFKPVRKHFDMPHDIVASEDGTVYIGDAHTNTVWKFTLTEKMEHRSV
Q: Which kcat [1] does the source give for B1 here?
A: 8.9 ± 0.2 s⁻¹

Q: What about the kcat/Km [1] of the same protein?
A: 5900 ± 200 M⁻¹ s⁻¹

Q: What about the Km [2] of the same protein?
A: 300 ± 30 µM

Q: And the kcat [2]?
A: 7.5 ± 0.2 s⁻¹

Q: What about the kcat/Km [2] of the same protein?
A: 25000 ± 1000 M⁻¹ s⁻¹

Q: And the Km [3]?
A: 3700 ± 200 µM

Q: And the kcat [3]?
A: 6.3 ± 0.3 s⁻¹

Q: And the kcat/Km [3]?
A: 1700 ± 50 M⁻¹ s⁻¹

Q: And the Km [4]?
A: 280 ± 30 µM

Q: And the kcat [4]?
A: 6.6 ± 0.3 s⁻¹

Q: And the kcat/Km [4]?
A: 23000 ± 2000 M⁻¹ s⁻¹

Q: And the Km [5]?
A: 1200 ± 200 µM

Q: What about the kcat [5] of the same protein?
A: 5.1 ± 0.4 s⁻¹

Q: And the kcat/Km [5]?
A: 4200 ± 600 M⁻¹ s⁻¹

Q: And the Km [6]?
A: 820 ± 40 µM

Q: What about the kcat [6] of the same protein?
A: 5.3 ± 0.08 s⁻¹

Q: And the kcat/Km [6]?
A: 6400 ± 200 M⁻¹ s⁻¹

Q: And the Km [7]?
A: 35000 ± 5000 µM

Q: What about the kcat [7] of the same protein?
A: 1.4 ± 0.1 s⁻¹

Q: And the kcat/Km [7]?
A: 41 ± 5 M⁻¹ s⁻¹

Q: And the Km [8]?
A: 84000 ± 23000 µM

Q: And the kcat [8]?
A: 0.27 ± 0.03 s⁻¹

Q: What about the kcat/Km [8] of the same protein?
A: 3.2 ± 0.6 M⁻¹ s⁻¹

Q: What about the Km [9] of the same protein?
A: 1800 ± 200 µM

Q: What about the kcat [9] of the same protein?
A: 5.7 ± 0.3 s⁻¹

Q: What about the kcat/Km [9] of the same protein?
A: 3200 ± 200 M⁻¹ s⁻¹

Q: And the Km [10]?
A: 1400 ± 100 µM

Q: And the kcat [10]?
A: 6.4 ± 0.2 s⁻¹

Q: And the kcat/Km [10]?
A: 4700 ± 200 M⁻¹ s⁻¹

Q: And the Km [11]?
A: 4300 ± 300 µM

Q: What about the kcat [11] of the same protein?
A: 7.9 ± 0.3 s⁻¹

Q: And the kcat/Km [11]?
A: 1800 ± 40 M⁻¹ s⁻¹

Q: What about the Km [12] of the same protein?
A: 1200 ± 100 µM

Q: And the kcat [12]?
A: 3.4 ± 0.1 s⁻¹

Q: And the kcat/Km [12]?
A: 2800 ± 100 M⁻¹ s⁻¹

Q: What about the Km [13] of the same protein?
A: 0.051 ± 0.007 0.043 ± 0.005 mM

Q: And the kcat [13]?
A: 11 ± 0.4 s⁻¹

Q: And the kcat/Km [13]?
A: 200000 ± 20000 M⁻¹ s⁻¹

Q: And the kcat [14]?
A: 12 ± 0.4 s⁻¹

Q: And the kcat/Km [14]?
A: 76000 ± 4000 M⁻¹ s⁻¹

Q: What about the Km [15] of the same protein?
A: 160 ± 20 µM

Q: What about the kcat [15] of the same protein?
A: 11 ± 0.4 s⁻¹

Q: What about the kcat/Km [15] of the same protein?
A: 70000 ± 7000 M⁻¹ s⁻¹

Q: What about the Km [16] of the same protein?
A: 110 ± 7 µM

Q: What about the kcat [16] of the same protein?
A: 8.7 ± 0.2 s⁻¹

Q: And the kcat/Km [16]?
A: 76000 ± 4000 M⁻¹ s⁻¹

Q: What about the Km [17] of the same protein?
A: 78 ± 11 µM

Q: And the kcat [17]?
A: 12 ± 0.8 s⁻¹

Q: What about the kcat/Km [17] of the same protein?
A: 160000 ± 10000 M⁻¹ s⁻¹

Q: What about the Km [18] of the same protein?
A: 190 ± 20 µM

Q: And the kcat [18]?
A: 4.6 ± 0.2 s⁻¹

Q: What about the kcat/Km [18] of the same protein?
A: 25000 ± 1000 M⁻¹ s⁻¹

Q: And the Km [19]?
A: 0.36 ± 0.08 0.45 ± 0.05 mM

Q: And the kcat [19]?
A: 9.7 ± 0.9 s⁻¹

Q: And the kcat/Km [19]?
A: 27000 ± 4000 M⁻¹ s⁻¹

Q: And the Km [20]?
A: 19000 ± 4000 µM

Q: What about the kcat [20] of the same protein?
A: 4.3 ± 0.6 s⁻¹

Q: What about the kcat/Km [20] of the same protein?
A: 230 ± 20 M⁻¹ s⁻¹

Q: What about the Km [21] of the same protein?
A: 770 ± 100 µM

Q: And the kcat [21]?
A: 2.8 ± 0.1 s⁻¹

Q: What about the kcat/Km [21] of the same protein?
A: 3600 ± 500 M⁻¹ s⁻¹

Q: What about the Km [22] of the same protein?
A: 2200 ± 200 µM

Q: And the kcat [22]?
A: 7.8 ± 0.3 s⁻¹

Q: And the kcat/Km [22]?
A: 3600 ± 200 M⁻¹ s⁻¹

Q: And the kcat [23]?
A: 4.9 ± 0.05 s⁻¹

Q: What about the kcat/Km [23] of the same protein?
A: 7100 ± 100 M⁻¹ s⁻¹

Q: And the Km [24]?
A: 2700 ± 100 µM

Q: And the kcat [24]?
A: 7.5 ± 0.07 s⁻¹

Q: What about the kcat/Km [24] of the same protein?
A: 2800 ± 100 M⁻¹ s⁻¹

Q: What about the Km [25] of the same protein?
A: 0.038 ± 0.02 0.023 ± 0.002 mM

Q: And the kcat [25]?
A: 1.6 ± 0.2 s⁻¹

Q: What about the kcat/Km [25] of the same protein?
A: 42000 ± 14000 M⁻¹ s⁻¹

Q: What about the Km [26] of the same protein?
A: 24 ± 5 µM

Q: What about the kcat [26] of the same protein?
A: 2.4 ± 0.2 s⁻¹

Q: What about the kcat/Km [26] of the same protein?
A: 100000 ± 20000 M⁻¹ s⁻¹
